# Values of other authors as cited in article PMC4077824, “Conserved Prosegment Residues Stabilize a Late-Stage Folding Transition State of Pepsin Independently of Ground States” (PLoS ONE, 2014).
# Test system: αLP
# Description: General thermodynamic and kinetic features of protein folding are known, such as that the natively folded conformation of a protein is thermodynamically stabilized and that there is a relationship between topology and folding rate, which holds for both two-state and multi-state folding proteins, [3]. […] In the case of pepsin, Rp was characterized by a ΔG unf of 5.8 kcal/mol, a 10% increase in unordered secondary structure and identical tertiary structure to Np (both yield R g ∼20 Å).
molecule,measurement,setting,value
"αLP: serine peptidase αLP (alpha-lytic protease) (protein, UniProt P00778 200-397, looked up) Alpha-lytic protease: ANIVGGIEYSINNASLCSVGFSVTRGATKGFVTAGHCGTVNATARIGGAVVGTFAARVFPGNDRAWVSLTSAQTLLPRVANGSSFVTVRGSTEAAVGAAVCRSGRTTGYQCGTITAKNVTANYAEGAVRGLTQGNACMGRGDSGGSWITSAGQAQGVMSGGNVQSNGNNCGIPASQRSSLFERLQPILSQYGLSLVTG",ΔG N-I,"native state relative to an intermediate state, ref [8]",-4 kcal/mol
same,stability of intermediate over native state,"αLP intermediate more stable than native state, ref [4]",4 kcal/mol
same,ΔG unf,"αLP intermediate, ref [4]",1 kcal/mol
